Assay: label from the status in PepcDB records

For “MSIHVNEANLTFHLQTDHTSYIFQIMKNGEAGQIYYGPRIHVQPTYQNLMSQEWRDATPSLNEENPNFQPATIKAEYASLGKGDFRQPAFQVTQANGSRITELTYDHYQLLTGKQRLANLPSTFDDTDDDAQTLVVSFNDRITGLALDLNYSIFPHQDVIVKSAKFTNPSSEKLVLNRALSSQLDLPDANYDLIQFSGTWARERHLYRHPLRPGMQSISSLRMASSHQQNPFMMLARPQTTDEQGAVFGFNLVYSGNFLDAIEVDQYSTSRILTGINPDEFGWNLAPQATFQTPEAILSYTSAGMNQLSQQMASFYQQHLVNPRFAHEERPVLINNWEATYFDFNEAKLMTIVNQAKRLGIEMFVLDDGWFGHRDDDTTSLGDWFVDQRKFPDGIEHFSQAVHQQGMKFGLWFEPEMVSVDSDLYQQHPDWLIHAPKSTPTPGRHQFVLDMARPEVVDYLFKLMSQMIESANLDYIKWDMNRYATEMFSSRLTSDQQLELPHRYILGVYQLYARLTQAYPNVLFESCASGGGRFDLGMMYYAPQAWTSDDTDAAERLLIQFGTSYGYPQAMMGAHVSAVPNDQMGRITSLKTRGAVAFFGDLGYELDITKMAPTELDQVKKQVAFYKCYRQLFQFGKFYRIDSPFVEDGNVTSWQVVSDDQKQAIAARYQLLNHPNAPYTRFYFKGLRPNQRYQINDDPSTYYGDELMNAGYFVPTILADGQESKDFYTQLFVVTAILEHHHHHH”, the protein production was “not failed”.

With “MSQTEPPEDLMQYEAMAQDALRGVVKAALKKAAAPGGLPEPHHLYITFKTKAAGVSGPQDLLSKYPDEMTIVLQHQYWDLAPGETFFSVTLKFGGQPKRLSVPYAALTRFYDPSVQFALQFSAPEIIEDEPEPDPEPEDKANQGASGDEGPKIVSLDQFRKKLEHHHHHH” the protein production was “not failed”.

In the case of “LHRIVDKMHDTSTGIRPSPNMEQGSTYKKTFLGSSLVDWLISSNFAASRLEAVTLASMLMEENFLRPVGVRSMGAIRSGDLAEQFLDDSTALYTFAESYKKKVSSKE”, the protein production was “not failed”.

For “MKVVVITGNLSRPSKTRAVADFMVDRVRASGNEASCWDLVDLHPHLGATVLPSSAAEIVKAALNDILASDVLVVGSPVYKASYTGLLKHLFDLVDMKALKGRYVIPFATGKASSHKPLVEASMEALFDFFEAQIHSRFIFALDEDFQNDALSENLRALVDRELDAARRAVSP”, the protein production was “failed”.

For “MYDMLKFEFSDRFLLFSYFVLIMFIGSLLLMLPISWEGDGKLAYIDALFTAVSAVSITGLTTVKMEGFSTFGFILIMLLIQLGGLGFISITTFYLLIPKKKMNLTDARIIKQYSLSNIEYNPIRILKSILFITFSIEMIGLILILICFKLRGVNISFLEALFTTISAFCNAGFSMHSESIYAWRDVPEAIVVVSILIICGGLGFMVYRDVNNTIKNKKKLSLHAKIVFSLSFFLIIIGAILFFFTEMHKLKAGYSMSTLIFNSIFYSISTRTAGFNYLDNSLISGRTQIISLPFMFIGGAPGSTAGGIKITTFFLIVLAVVKNQNGNGYIIGSYKVSIDSIRFALLFFARAIFILSFSFFMLLFFEGGSGNWKVIDLGYEVFSAFGTVGLSVGVTQDLSFWGKVIIIFTMFAGRIGLFSMAVFVSRKSRFEEFTRPRQDILVG”, the protein production was “failed”.

In the case of “MRKKGNKLIEFVSKIMALVMAVTLLSSLPVQNVLANDSKETKGEEYEIYPIPQSIKYDNGTVTLGTDANVVFEEGIDEATKNRLLEVLSIKGINYEESNEIKEDKTNFLIGINNSEGVVDKYFTDNNLANDSHFENHDAHVVSVKGNVIAVLGKNTDSAFYGITSLKAIFNQLEGNELKELLIEDYSDGQWRGFIEGYYGIPWSNENRKDLMKFGGDFKMNSYIFAPKDDQYHSLKWREPYPAEKLAEIKEMVDVGIATKNKFIWTIHPFLKDGMNFGSEESYKADLEKIIAKFEQLYSVGVRQFGVLADDAEGEANNQVKLMEDLEKWRLQKGDVYEFIFVPKVYTKESAGGDVNNEYLKTIGTMPETIDIMWTGDVILGYVTQETFEFFEEAVGRQAFMWLNWPVNDINNKRLLMGKGEMLDPTVTNFKGIVTNPMQEAQASKVALFAIADYGWNRADFDMDKSWKDSFKYIEPDASEELYTFAKHMSDPAPNWHGLSLEESEELRPVIEEFTRKLWEKESVLDYSKVILDEYQEILDATNNFATKSKNELLKSEIKGWVDSLRDLAESTIAYINSAVAFEKGNYEEAMKYYVLGEDEYTASRSHRTPVINGQSRPEPGTRHLIPFIKDLSKIIGDNIDQVINPDTTKLTLRPYTNMSPLYWGHVQNIADGDNTRYSCMWIRNSAKEGDYVAVELNEVTKVNSITFEQGQDEGDAFNYGKFQYSMDGENWIDVDGVDYGPKMHKIVVEGLDITAKYLRFIPTKEILNNWIAVREFSVNKKDENNMKVNAYTNVEALAKNEVSISEEKATLSDLNDVTLSKGEYVGIKLNKLREVTNIVSDFTNNDNLTLETSINGVEWVEAKTLSETINARYVRIINNTEKDVTFNLNKLEAEYSNNDVNFDIRPTAEAKFEPKNLIDGKLNTAFKPLESAPKSGQLTYRISDKTDIKKFTIVQNPNTISNAIVSVRNENGWKEVGSLGKSFNEFNTEDFENVFEIKVEWDGFAPTIYEIGLSTIKEEVQVDKSKLEEAIKEVEKLKEEDYTKDSWSNLIEKLNLAKEVLSKEDATQDEVDNAIKALNEAISGLVKKDETEGPVDPEKPVDPENPDNTEKPENPEGTDKPQTPDKPEGNLPNTGGASSSIFLQLGVVMMASGAFVLKRKKR”, the protein production was “failed”.

For “MAIGERIRFFRNLRGMTQKYLGTVVGFPENTADIRMAQYESGSRTPKADLTENLAGVLGVSPLALSVPDIDSYLGLMHTLFTLEDRYGLTIEKGENGVSMCVDPRKGKDAAELSEMLNAWAKQAEKYHNGDISRELEHHHHHH”, the protein production was “not failed”.

With “MQMNNHIRLRKAEGKWVIRTDSAVLGETLNAIELTEGSRDPVIYFPREDVAMVMFDKSEKVTACPLKGEASYYSIVGASGTLKDAAWSYESPKEGLEAIAGYLAFAPDCTKVGQY” the protein production was “not failed”.

In the case of “MFIEALILLCLVGAAAVFIAPDRYAHKLALGLSVPPLVVSLYMYAAFDGSGNALLGGDIAYETATEWLQLGQYTVSYHVGLDGISLPLVVLSTVLTTLAILSAWTPIDERQSEFYGLVLLLEGSLIGVFAALDFILWFVFWEAVLIPMYLLIGVWGGPRRKYAAIKFFVYTNIASLVMFIGYFALVFGLGDAVSSTGMPAVAQALRADQLGYLGTAAVGIGPDMLAMAAFLAMFVGFAVKVPVVPFHTWLPDAHVEAPTPVSVLLAGVLLKMGTYALLRFNFTMLPDQVETFAVPIALIAIISILYGALLALAQKDLKRIVAYSSVSSMGYVILGLVAYTVYGVGGATFQMIAHGLISGLLFMTVGVFYNATHTRMVGDMGGLADRMPVTAGIFIAGAFGYMGLPLMAGFMAELFVFIGAFQSAILPYAPVITAAGMFGIVVVAGYLLWAMQRSLFGPFRLETDYELERAPVHDIVPLLTLVALIIALGVAPDLIFEMIRDATHSVIDYDFGGDL”, the protein production was “failed”.

For “MSLSVTIVMIEDDLGHARLIEKNIRRAGVNNEIIAFTDGTSALNYLFGDDKSGRVSAGRAQLVLLDLNLPDMTGIDILKLVKENPHTRRSPVVILTTTDDQREIQRCYDLGANVYITKPVNYENFANAIRQLGLFFSVMQVPETEGHHHHHH”, the protein production was “not failed”.

For “MKNICFINGSPRSKKANSTLYLNLIDKSLDSKNYTKYYIDTTSSIKGDLESTFKTLLDADYIILAFPLYVYSMPSLLVRFLEDYYIYLKNKDTISQKTNLYAVVNCGFPDAKMNVEALKIVFNCCKKLNINFRFGIGIGAGEFVNFSKNNPLLNKLSSCVYKSINKITYDIENQVSIEINNIFVNPKIPRRLFFIFGHIFWKKWAKRNGIKISALFDKPLEHHHHHH”, the protein production was “failed”.

With “MKIFGTDGVRGKAGVKLTPMFVMRLGIAAGLYFKKHSQTNKILIGKDTRKSGYMVENALVSALTSIGYNVIQIGPMPTPAIAFLTEDMRCDAGIMISASHNPFEDNGIKFFNSYGYKLKEEEEKAIEEIFHDEELLHSSYKVGESVGSAKRIDDVIGRYIAHLKHSFPKHLNLQSLRIVLDTANGAAYKVAPVVFSELGADVLVINDEPNGCNINDQCGALHPNQLSQEVKKYRADLGFAFDGDADRLVVVDNLGNIVHGDKLLGVLGVYQKSKNALSSQAVVATNMSNLALKEYLKSQDLELKHCAIGDKFVSECMQLNKANFGGEQSGHIIFSDYAKTGDGLVCALQVSALVLESKQVSSVALNPFELYPQSLVNLNVQKKPPLESLKGYSALLKELDKLEIRHLIRYSGTENKLRILLEAKDEKLLESKMQELKEFFEGHLC” the protein production was “failed”.

With “EFYCEVLLLDESKLTLTTQQQGIKKSTKGSVVLDHVFHHVNLVEIDYFGLRYCDRSHQTYWLDPAKTLAEHKELINTGPPYTLYFGIK” the protein production was “failed”.

— a protein production outcome set (Wang et al. 2014)
